Test results taken from patent US20180230214A1.

Biological target: biotinylated soluble human CD56 (human) (UniProt P13591)
Assay: flow cytometry of 56-28z-LNGFR transduced T cells stained with biotinylated soluble human CD56 (y axis 'sCD56 binding') against LNGFR (x axis). The other quadrants of this panel read 0.56 (upper left), 41.8 (lower left) and 33.1 (lower right). The sCD56 signal rises with LNGFR to about 10^3. The untransduced T cell control panel reads 0.57 (upper left), 0.27 (upper right), 97.6 (lower left) and 1.61 (lower right).

- quadrant number, cells positive for sCD56 binding and for LNGFR (upper right quadrant): 24.5%
Substance: 56-28z CAR (scFv of murine anti-human CD56 antibody N901 fused to CD28/CD3z domains)
